In PMC9610207 (Viruses, 2022):
No end group written: not given here.

Biological target: SNX27 PDZ (amino acids 740–141) (human, UniProt Q96L92 43-136)
Experiment: fluorescence polarisation
Settings: both partners purified

SADAQSFLNGFAV (also: FITC-labeled) [FITC-labeled peptide NSP11 4393-4405 of SARS-CoV-2]
Kd: > 400 µM
